Assays:
cgrf1_human CGRRF1 = biological target: T1, cgrf1_human CGRRF1 (UniProt Q99675)
T1 sequence: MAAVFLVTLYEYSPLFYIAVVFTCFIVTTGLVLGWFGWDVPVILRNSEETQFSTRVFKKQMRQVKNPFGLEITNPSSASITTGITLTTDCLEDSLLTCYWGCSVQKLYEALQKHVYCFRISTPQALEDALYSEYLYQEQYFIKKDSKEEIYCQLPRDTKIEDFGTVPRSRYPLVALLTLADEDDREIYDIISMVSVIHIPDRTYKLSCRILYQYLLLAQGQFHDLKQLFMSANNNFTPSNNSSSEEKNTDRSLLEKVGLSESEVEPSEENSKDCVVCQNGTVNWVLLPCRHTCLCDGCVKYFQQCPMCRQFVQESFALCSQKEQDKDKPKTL

pdz1i_human PDZK1IP1 = biological target: T2, pdz1i_human PDZK1IP1 (UniProt Q13113)
T2 sequence: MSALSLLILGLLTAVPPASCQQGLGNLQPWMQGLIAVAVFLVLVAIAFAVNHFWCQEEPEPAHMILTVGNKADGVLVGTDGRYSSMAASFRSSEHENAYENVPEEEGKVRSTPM

bik_human BIK = bik_human BIK (UniProt Q13323)
bik_human BIK, sequence (Q13323 whole entry): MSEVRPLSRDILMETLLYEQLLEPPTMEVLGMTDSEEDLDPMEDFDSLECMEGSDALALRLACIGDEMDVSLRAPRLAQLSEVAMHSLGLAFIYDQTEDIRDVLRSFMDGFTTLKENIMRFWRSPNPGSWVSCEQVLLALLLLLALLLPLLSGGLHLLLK

ssmm1_human SSMEM1 = biological target: T3, ssmm1_human SSMEM1 (UniProt Q8WWF3)
T3 sequence: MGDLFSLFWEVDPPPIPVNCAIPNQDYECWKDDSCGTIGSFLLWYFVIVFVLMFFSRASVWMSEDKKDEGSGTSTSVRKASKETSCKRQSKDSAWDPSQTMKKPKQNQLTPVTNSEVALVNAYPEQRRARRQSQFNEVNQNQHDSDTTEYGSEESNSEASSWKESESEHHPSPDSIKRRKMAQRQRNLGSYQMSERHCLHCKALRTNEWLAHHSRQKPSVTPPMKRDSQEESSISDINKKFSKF

gp152_human GPR152 = gp152_human GPR152 (UniProt Q8TDT2)
gp152_human GPR152, sequence (Q8TDT2 whole entry): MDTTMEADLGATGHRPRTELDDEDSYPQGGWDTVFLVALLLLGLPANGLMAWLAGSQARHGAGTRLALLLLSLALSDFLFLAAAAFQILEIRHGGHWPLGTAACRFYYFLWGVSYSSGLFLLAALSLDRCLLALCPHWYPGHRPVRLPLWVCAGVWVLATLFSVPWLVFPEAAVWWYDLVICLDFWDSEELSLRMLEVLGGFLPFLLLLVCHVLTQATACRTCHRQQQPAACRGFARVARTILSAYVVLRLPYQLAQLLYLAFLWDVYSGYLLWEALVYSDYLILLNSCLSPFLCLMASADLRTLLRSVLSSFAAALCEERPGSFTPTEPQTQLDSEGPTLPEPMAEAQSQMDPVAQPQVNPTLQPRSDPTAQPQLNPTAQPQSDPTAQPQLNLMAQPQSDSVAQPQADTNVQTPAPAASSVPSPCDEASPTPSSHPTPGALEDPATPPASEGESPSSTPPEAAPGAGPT

jam1_human F11R = biological target: T4, jam1_human F11R (UniProt Q9Y624)
T4 sequence: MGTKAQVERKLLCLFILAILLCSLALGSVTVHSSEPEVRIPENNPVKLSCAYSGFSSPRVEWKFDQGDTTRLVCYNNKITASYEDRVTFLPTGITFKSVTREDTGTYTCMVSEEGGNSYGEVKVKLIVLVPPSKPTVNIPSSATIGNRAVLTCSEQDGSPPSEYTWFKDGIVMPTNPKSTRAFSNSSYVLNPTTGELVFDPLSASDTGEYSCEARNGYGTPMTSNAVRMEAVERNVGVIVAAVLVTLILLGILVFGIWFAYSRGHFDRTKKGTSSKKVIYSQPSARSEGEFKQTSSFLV

cld7_human CLDN7 = biological target: T5, cld7_human CLDN7 (UniProt O95471)
T5 sequence: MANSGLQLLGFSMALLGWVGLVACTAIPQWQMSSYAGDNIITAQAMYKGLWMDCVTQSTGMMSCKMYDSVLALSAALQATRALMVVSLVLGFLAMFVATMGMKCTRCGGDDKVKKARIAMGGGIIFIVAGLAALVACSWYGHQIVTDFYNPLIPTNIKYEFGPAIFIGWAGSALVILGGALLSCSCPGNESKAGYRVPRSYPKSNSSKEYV

ar13b_human ARL13B = ar13b_human ARL13B (UniProt Q3SXY8)
ar13b_human ARL13B, sequence (Q3SXY8 whole entry): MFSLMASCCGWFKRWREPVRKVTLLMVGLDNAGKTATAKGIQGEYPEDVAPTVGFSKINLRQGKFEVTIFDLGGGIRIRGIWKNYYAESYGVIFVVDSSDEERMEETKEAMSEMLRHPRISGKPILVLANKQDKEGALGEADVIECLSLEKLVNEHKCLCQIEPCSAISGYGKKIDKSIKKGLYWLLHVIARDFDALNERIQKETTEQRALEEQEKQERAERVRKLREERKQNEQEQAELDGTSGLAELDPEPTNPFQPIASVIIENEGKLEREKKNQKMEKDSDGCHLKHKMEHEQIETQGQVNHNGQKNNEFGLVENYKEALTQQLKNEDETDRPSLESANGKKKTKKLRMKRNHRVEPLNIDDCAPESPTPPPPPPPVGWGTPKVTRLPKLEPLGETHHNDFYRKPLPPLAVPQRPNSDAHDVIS

amgo1_human AMIGO1 = biological target: T6, amgo1_human AMIGO1 (UniProt Q86WK6)
T6 sequence: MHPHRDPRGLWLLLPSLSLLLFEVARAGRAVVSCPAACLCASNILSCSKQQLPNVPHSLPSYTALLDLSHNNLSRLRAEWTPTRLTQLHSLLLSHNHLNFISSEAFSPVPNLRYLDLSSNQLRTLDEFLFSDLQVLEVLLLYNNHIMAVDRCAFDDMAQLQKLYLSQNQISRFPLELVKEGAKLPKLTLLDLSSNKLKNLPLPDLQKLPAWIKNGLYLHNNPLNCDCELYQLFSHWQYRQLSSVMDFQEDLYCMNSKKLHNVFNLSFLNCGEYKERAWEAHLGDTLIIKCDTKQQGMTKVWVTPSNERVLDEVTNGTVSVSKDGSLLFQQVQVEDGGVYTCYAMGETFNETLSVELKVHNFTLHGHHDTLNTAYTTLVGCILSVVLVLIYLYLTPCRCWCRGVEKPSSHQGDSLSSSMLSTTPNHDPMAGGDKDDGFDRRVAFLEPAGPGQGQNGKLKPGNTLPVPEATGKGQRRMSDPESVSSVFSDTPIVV

kash5_human KASH5 = biological target: T7, kash5_human KASH5 (UniProt Q8N6L0)
T7 sequence: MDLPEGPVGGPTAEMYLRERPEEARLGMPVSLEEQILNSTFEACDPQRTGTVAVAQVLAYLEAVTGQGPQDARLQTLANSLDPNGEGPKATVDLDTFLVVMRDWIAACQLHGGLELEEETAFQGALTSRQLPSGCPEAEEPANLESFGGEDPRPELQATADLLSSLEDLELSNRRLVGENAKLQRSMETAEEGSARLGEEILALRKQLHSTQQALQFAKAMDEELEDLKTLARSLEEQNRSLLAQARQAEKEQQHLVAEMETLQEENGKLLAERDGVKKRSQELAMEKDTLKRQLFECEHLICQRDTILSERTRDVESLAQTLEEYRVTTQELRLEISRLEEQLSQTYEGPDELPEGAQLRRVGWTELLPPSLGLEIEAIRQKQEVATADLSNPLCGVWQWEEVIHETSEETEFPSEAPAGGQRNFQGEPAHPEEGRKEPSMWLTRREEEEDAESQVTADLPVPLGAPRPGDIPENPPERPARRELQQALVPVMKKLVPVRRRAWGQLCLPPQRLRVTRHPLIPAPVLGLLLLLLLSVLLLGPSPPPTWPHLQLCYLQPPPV

cxa8_human GJA8 = cxa8_human GJA8 (UniProt P48165)
cxa8_human GJA8, sequence (P48165 whole entry): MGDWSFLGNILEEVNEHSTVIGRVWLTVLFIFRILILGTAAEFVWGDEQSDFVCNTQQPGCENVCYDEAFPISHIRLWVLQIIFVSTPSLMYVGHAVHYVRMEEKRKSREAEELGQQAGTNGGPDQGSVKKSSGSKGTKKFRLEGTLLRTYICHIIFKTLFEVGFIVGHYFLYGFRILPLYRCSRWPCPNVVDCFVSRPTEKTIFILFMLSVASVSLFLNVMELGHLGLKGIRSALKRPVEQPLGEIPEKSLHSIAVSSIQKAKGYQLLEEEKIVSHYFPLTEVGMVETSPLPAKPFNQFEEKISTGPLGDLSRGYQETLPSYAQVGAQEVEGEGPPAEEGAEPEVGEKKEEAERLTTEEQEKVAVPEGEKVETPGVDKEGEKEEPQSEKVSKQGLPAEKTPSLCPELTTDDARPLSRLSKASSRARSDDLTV

cplx4_human CPLX4 = biological target: T8, cplx4_human CPLX4 (UniProt Q7Z7G2)
T8 sequence: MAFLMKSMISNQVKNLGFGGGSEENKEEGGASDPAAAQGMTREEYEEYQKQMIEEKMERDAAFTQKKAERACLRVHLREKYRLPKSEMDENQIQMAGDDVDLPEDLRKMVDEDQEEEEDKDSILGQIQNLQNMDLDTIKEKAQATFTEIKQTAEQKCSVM

crtp1_human CYSRT1 = biological target: T9, crtp1_human CYSRT1 (UniProt A8MQ03)
T9 sequence: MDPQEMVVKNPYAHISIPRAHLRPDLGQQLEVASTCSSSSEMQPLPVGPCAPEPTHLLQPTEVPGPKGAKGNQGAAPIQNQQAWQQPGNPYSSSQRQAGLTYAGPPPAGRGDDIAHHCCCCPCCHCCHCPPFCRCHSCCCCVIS

- effect of a mutation on the interaction (cgrf1_human CGRRF1): with no effect
- effect of a mutation on the interaction (pdz1i_human PDZK1IP1): with no effect
- effect of a mutation on the interaction (bik_human BIK): with no effect
- effect of a mutation on the interaction (ssmm1_human SSMEM1): with no effect
- effect of a mutation on the interaction (gp152_human GPR152): with no effect
- effect of a mutation on the interaction (jam1_human F11R): disrupting interaction strength
- effect of a mutation on the interaction (cld7_human CLDN7): disrupting interaction strength
- effect of a mutation on the interaction (ar13b_human ARL13B): with no effect
- effect of a mutation on the interaction (amgo1_human AMIGO1): disrupting interaction strength
- effect of a mutation on the interaction (kash5_human KASH5): disrupting interaction strength
- effect of a mutation on the interaction (cxa8_human GJA8): with no effect
- effect of a mutation on the interaction (cplx4_human CPLX4): with no effect
- effect of a mutation on the interaction (crtp1_human CYSRT1): disrupting interaction strength
Substance: Acyltransferase PGAP2 (Homo sapiens) (from UniProt Q9UHJ9-5) T160I

From IntAct's records for PubMed 32296183
